The values below come from US20250163168.

The nature of this data set: AC-SINS self-interaction assay; the antibody against itself (N = 2).

Turning to “negative control (polyreactivity assays)”, the AC-SINS (wavelength of maximum absorbance relative to blank, nm) came out at 0 nm.

In turn, “positive control (polyreactivity assays)” came in with an AC-SINS (wavelength of maximum absorbance relative to blank, nm) of 23.5 nm.
